Patent publication US20250215091A1, “Anti-GAL3 Antibodies and Compositions” (Les Laboratoires Servier, priority 2022, published 2025)

T1: Gal3 CRD domain from dog (dog, UniProt P38486 152-296, limits assumed)
T1 construct: domain: CRD domain; also called dog Gal3-CRD
T1 sequence (looked up): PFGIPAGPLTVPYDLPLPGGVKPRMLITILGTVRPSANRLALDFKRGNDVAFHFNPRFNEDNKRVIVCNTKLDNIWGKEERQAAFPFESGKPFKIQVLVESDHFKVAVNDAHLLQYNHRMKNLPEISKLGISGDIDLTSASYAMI

T2: Gal3 CRD domain from rat (rat, UniProt P08699 118-262, limits assumed)
T2 construct: domain: CRD domain; also called rat Gal3-CRD
T2 sequence (looked up): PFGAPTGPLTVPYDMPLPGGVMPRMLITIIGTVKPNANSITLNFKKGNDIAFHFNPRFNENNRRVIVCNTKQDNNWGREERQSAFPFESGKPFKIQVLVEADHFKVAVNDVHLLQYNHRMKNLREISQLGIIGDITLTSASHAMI

B1: anti-Gal3 antibody H10 (antibody, V domains shown)
VH: EVQLVESGGSLVKPGGSLRLSCAASGFTFSNYYMNWVRQAPGKGLEWISYINGASRDISYADFVKGRFTISRDNAKNSLYLQMNSLRAEDTAVYYCVRSSYGYSNYGSGMDVWGRGTLVTVSS
VL: QSVLTQPASVSGSPGQSITISCAGTSSDVGGSYNVAWYQQHPGKAPKLMIYNDANRPSGVSNRFSGSKSGNTASLTISGLQAEDEADYYCSSNTADSTRVFGGGTKLEIK
B2: H10: anti-Gal3 monoclonal antibody, IgG1 format; VH SEQ ID NO 44, VL SEQ ID NO 45 (antibody, V domains shown)
VH: B1 VH
VL: B1 VL

Legend:
[1] = target: T3, human full-length Galectin-1 (human, UniProt P09382 2-135); test: ELISA on immobilised antigen (3 µg/mL), purified IgG at 15-20 µg/mL, anti-Fab.HRP, OD 450 nm
T3 construct: full-length; Histidine-tagged; also called Hu-Gall; Gall
Protocol: (§1) IgG specificity to Gal3 was tested by checking the absence of binding on human Gall and Gal7 by ELISA.
(§2) Hu-Gall and Hu-Gal7 were immobilized at 3 μg/mL. Purified IgGs were added into the wells (15-20 μg/mL final concentration) and detected with an anti-Fab.HRP antibody. Rabbit antibodies directed against Gall (Abcam ab25138 reference) and Gal7 (Abcam ab108623 reference) were used at 5 μg/mL as antigen-coating positive controls and detected with an anti-rabbit.HRP secondary antibody (7074S-Cell Signaling reference).

[2] = target: T4, human full-length Galectin-7 (human, UniProt P47929 1-136); test: as above
T4 construct: full-length; Histidine-tagged; also called Hu-Gal7; Gal7
Protocol: as §1, §2

Gal3 CRD domain from dog = target: T1, Gal3 CRD domain from dog; test: SPR single-cycle kinetics, captured antibody, Gal3-CRD 0.5-50 nM
Protocol: (§3) The CM5 sensor surface was first immobilized with an anti-human Fc mAb using a standard protocol. The entire sensor surface was first activated by injecting a 1:1 (v/v) mixture of 400 mM EDC and 100 mM NHS at a flow rate of 10 μL/minute for 7 minutes. Monoclonal anti-human Fc antibody (Millipore AP113), 25 μg/mL in Na acetate pH5, 360 s were flowed at 10 μL/minute to reach 10000 RU on both flow cells followed by the injection of 1 M ethanolamine, pH8.5 for 7 minutes at a flow rate of 10 μL/minute. During the entire immobilization procedure, HBS-P was used as the running buffer.
(§4) Antibody samples were prepared at 5 μg/ml and were injected for 30 seconds at 10 μL/minute. In general, 400 to 680 resonance units of antibodies were captured on the chip.
(§5) Kd values were also determined by SPR using […] kinetics analysis. A total of 5 concentrations of Gal3 CRD domain from human, dog, rat and cynomolgus (Novalix) [0.5-50] nM were injected over the antibody capture surfaces for 210 seconds followed by a dissociation phase of 600 seconds at 30 μL/minute. At the end of each cycle, capture surfaces were regenerated by 2 injections of glycine pH 1.5, for 30 seconds at 10 μL/minute, followed by an extra wash with glycine pH 1.5. Fresh antibody was captured at the beginning of each cycle.

[3] = target: T5, CRD domain of human Galectin-3 (human, UniProt P17931 106-250); test: as above
T5 construct: Histidine-tagged; also called hu-Gal3-CRD; Hu-Gal3-CRD
Protocol: as §3, §4, §5

[4] = target: T6, Gal3 CRD domain from cynomolgus (cynomolgus, UniProt A0A7N9CYL1 103-247); test: as above
T6 construct: domain: CRD domain; also called cynomolgus Gal3-CRD
Protocol: as §3, §4, §5

Gal3 CRD domain from rat = target: T2, Gal3 CRD domain from rat; test: as above
Protocol: as §3, §4, §5

[5] = target: T7, full length mouse Galectin-3 (mouse, UniProt P16110 2-264); test: ratio of the ELISA EC50 values on Hu-Gal3-FL and m-Gal3-FL
T7 construct: Printed as 'full length'; recombinant, immobilized through a histidine tag; also called m-Gal3-FL; murine Gal3
Protocol: (§6) To determine the half maximal effective concentration (EC50) of the antibodies, ELISA dose-response experiments were performed on Hu-Gal3-FL and on m-Gal3-FL.
(§7) Hu-Gal3-FL and m-Gal3-FL were immobilized at 3 μg/mL through their His-tag on functionalized microplates as before. A 3.3-fold serial dilution was carried-out with the purified IgGs, added to the wells containing immobilized Hu-Gal3-FL or m-Gal3-FL and detected with an anti-Fab.HRP antibody.

[6] = target: T7, full length mouse Galectin-3; test: dose-response ELISA on immobilized m-Gal3-FL, IgG
Protocol: as §6, §7

[7] = target: T7, full length mouse Galectin-3; test: SPR Biacore T-200, antibody captured by anti-human Fc, Gal3 in solution
Protocol: as §3, §4

[8] = target: T8, full length human Galectin-3 (human, UniProt P17931 2-250); test: as above
T8 construct: Printed as 'full length'; recombinant, immobilized through a histidine tag; also called hu-Gal3-FL; Hu-Gal3-FL
Protocol: as §3, §4

[9] = target: T5, CRD domain of human Galectin-3; test: competitive ELISA, inhibition of ASF binding to immobilized Hu-Gal3-CRD
Protocol: The inhibitory properties and IC50 of the anti-Gal3 antibodies were determined in an ELISA competitive assay by measuring the binding of ASF to immobilized CRD domain of human Gal3 in absence or presence of the antibodies at different concentrations.
The inhibition assay was performed on Hu-Gal3-CRD which was immobilized at 1 μg/mL through its His-tag on functionalized microplates. A 2-fold or 3-fold serial dilution was carried-out with the purified IgGs and added to the wells with immobilized Hu-Gal3-CRD. ASF (A1908-Sigma reference) was added at 8 μg/mL in each well with or without IgGs. ASF binding to Hu-Gal3-CRD was detected with the HRP-labeled anti-ASF sheep antibody. IC50 were estimated according to the model equation Y=Bottom+(Top−Bottom)/(1+(X/IC50)). Indicative maximal percentages of inhibition were obtained with the formula: 100%−(((mean of bottom plateau values of IgGs)×100%)/mean of irrelevant IgG values)

[10] = target: T8, full length human Galectin-3; test: dose-response ELISA on immobilized Hu-Gal3-FL, IgG
Protocol: as §6, §7

plasma TNF alpha = test: Rat ARDS model (LPS challenge): plasma TNF alpha (MSD); format: in vivo; settings: 4 h following LPS challenge; vs LPS group; FIG. 18
Protocol: (§8) Positive control rats received 3 doses of sterile phosphate buffer at day minus 11, minus 6 and minus 1 prior LPS challenge (0.25 mg/kg by subcutaneous route at day 1). Negative control rats received one oral dose of Dexamethasone at 10 mg/kg (dissolved in 0.5% carboxymethyl cellulose in deionized water) 2 hours prior LPS challenge (0.25 mg/kg by subcutaneous route at day 1). LPS (lipopolysaccharide) causes an acute inflammatory response, whereas dexamethasone has anti-inflammatory effects thus being the reference treatment in this model.
(§9) Antibody-treated rats received 3 doses of antibodies (14 mg/kg) at day minus 11, minus 6 and minus 1 prior to LPS challenge (0.25 mg/kg by subcutaneous route at day 1). Each antibody was solubilized in sterile PBS before injection.
(§10) Control rats of the experiment received 3 doses of sterile phosphate buffer at day minus 11, minus 6 and minus 1 without LPS challenge at day 1.
For all rats, plasma sampling was performed 4 h following LPS challenge.
The impact of anti-Gal3 antibody treatment in LPS challenged rats were evaluated on plasma cytokine levels, namely TNF alpha and KC-GRO cytokines, and compared to the positive control group (LPS challenge with PBS treatment) (respectively FIG. 18A and FIG. 18B). TNF alpha and KC-GRO were quantified by using the MSD technology from Mesoscale.

[11] = system: murine model of HOCI-induced fibrosis; test: HOCI-induced murine fibrosis model: skin thickness; format: in vivo, mice; settings: second experiment, sustained effect until day 63
Protocol: In a first experiment, control mice (n=12) received a daily intradermal injection of 300 μL of sterile phosphate buffer saline (PBS) for 5 consecutive days per week, for a duration of 42 days. HOCI alone and HOCI with antibody (HOCI-antibody) treated mice (n=12 per group) received a daily intradermal injection of 300 μL of HOCI for 5 consecutive days per week, for a duration of 42 days. Antibody-treated mice also received a subcutaneous injection of 20 mg/kg antibody, starting at day minus one and every 5 days between day 5 and day 40. Each antibody was solubilized in sterile, endotoxin-free PBS before injection. In a second experiment, the same protocol was applied, except that duration of the study was 63 days and antibodies were given every 7 days starting at day minus 1 until day 62.
Mice that received daily injection of HOCI were also treated by intratracheal instillation of 0.5 mg/kg of TD139 compound (HOCI-TD139), a small molecule Gal3 inhibitor. In a first experiment, the administrations started from day 21 and the compound was given every 3 days until day 39. In a second experiment, the administrations started from day 20 and the compound was given every 3 days until day 62. TD139 was initially dissolved in 100% DMSO then diluted 50-fold in endotoxin-free PBS before administration.
The evolution of skin thickness was monitored by using an external caliper, every seven days until sacrifice.

rat model of ARDS [12] = test: Rat ARDS model (LPS challenge): neutrophils counts in BALF; format: in vivo; settings: antibodies 14 mg/kg x3 prior to LPS; dexamethasone 10 mg/kg oral; vs LPS group; FIG. 16
Protocol: as §8, §9, §10
(§11) The impact of anti-Gal3 antibody treatment in LPS challenged rats were evaluated by quantification of neutrophils in Bronchoalveolar Lavage Fluid and compared to the positive control group (LPS challenge with PBS treatment) (FIG. 16). […] Neutrophils numeration levels were decreased after treatment with anti-inflammatory dexamethasone.

rat model of ARDS [13] = test: Rat ARDS model (LPS challenge): total BALF protein (BCA assay); format: in vivo; settings: antibodies 14 mg/kg x3 prior to LPS; dexamethasone 10 mg/kg oral; vs LPS group; FIG. 17
Protocol: as §8, §9, §10
as §11, with “proteins (by BCA assay)” for “neutrophils”, “BALF” for “Bronchoalveolar Lavage Fluid”, “17). The presence of protein in BALF reflects the damage to the air-blood barrier.” for “16).”, “Total BALF protein” for “Neutrophils”

T7 sequence (P16110 2-264 limits assumed): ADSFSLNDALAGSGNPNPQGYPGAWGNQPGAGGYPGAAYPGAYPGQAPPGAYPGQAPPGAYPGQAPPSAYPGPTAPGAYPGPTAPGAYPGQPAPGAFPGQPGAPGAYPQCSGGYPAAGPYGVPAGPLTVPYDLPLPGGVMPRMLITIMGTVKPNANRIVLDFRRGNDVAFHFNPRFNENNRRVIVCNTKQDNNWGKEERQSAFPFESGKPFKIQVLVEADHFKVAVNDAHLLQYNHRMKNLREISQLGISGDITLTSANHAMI
T5 sequence (P17931 106-250 limits assumed): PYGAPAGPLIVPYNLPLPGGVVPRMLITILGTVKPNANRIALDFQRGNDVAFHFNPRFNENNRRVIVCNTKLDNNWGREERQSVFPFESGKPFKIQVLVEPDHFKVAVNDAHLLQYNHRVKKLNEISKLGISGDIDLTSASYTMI
T8 sequence (P17931 2-250 limits assumed): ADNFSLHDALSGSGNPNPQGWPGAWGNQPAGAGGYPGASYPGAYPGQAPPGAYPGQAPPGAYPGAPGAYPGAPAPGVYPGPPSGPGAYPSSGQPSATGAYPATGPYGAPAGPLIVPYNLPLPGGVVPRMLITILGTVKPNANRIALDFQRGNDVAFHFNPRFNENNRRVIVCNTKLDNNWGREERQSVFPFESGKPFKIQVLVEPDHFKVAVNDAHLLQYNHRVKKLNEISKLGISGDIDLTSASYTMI
T4 sequence (P47929 whole entry): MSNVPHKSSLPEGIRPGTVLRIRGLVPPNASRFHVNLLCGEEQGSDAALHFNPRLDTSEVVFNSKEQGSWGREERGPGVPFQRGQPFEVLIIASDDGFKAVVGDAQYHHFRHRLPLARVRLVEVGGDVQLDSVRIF
T3 sequence (P09382 2-135 limits assumed): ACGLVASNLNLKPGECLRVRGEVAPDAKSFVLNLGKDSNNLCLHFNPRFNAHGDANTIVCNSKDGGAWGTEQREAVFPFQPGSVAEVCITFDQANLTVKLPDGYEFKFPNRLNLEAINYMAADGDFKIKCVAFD

Molecule | binding result [1] | binding result [2] | Kd (Gal3 CRD domain from dog) [nM] | Kd [3] [nM] | Kd [4] [nM] | Kd (Gal3 CRD domain from rat) [nM] | Ratio (Human/mouse Gal3 EC50 ratio) [5] | EC50 [6] [nM] | Kd [7] [nM] | Kd [8] [nM] | IC50 [9] [nM] | Max % inhibition [9] [%] | EC50 [10] [nM] | TNF alpha plasma levels (plasma TNF alpha) | HOCI-induced increase in skin thickness ([11]; 63 days, antibody 20 mg/kg s.c. every 7 days, FIG. 7B) | day from which reduction of skin thickness was significant [11] [days] | neutrophils counts in BALF (rat model of ARDS [12]) | total BALF protein (rat model of ARDS [13])
B1 | no binding (tested: 15-20 µg/mL) | no binding (tested: 15-20 µg/mL) | 24 | 8.2 | 5.6 | 12 | 30 | 5.9 | 2.72 | 4.5 | 2.7 | 89 | 0.2 |  |  |  |  | 
B2 |  |  |  |  |  |  |  |  |  |  |  |  |  | also decreased, displaying an intermediary profile | significantly reduced | 14 | also decreased | also decreased
